Test [1] concerns the target endogenous Apaf-1 polypeptide of 293T cells (human) (UniProt O14727). The experiment in a line: cell-based or functional assay.
The target of test [2] is T1, endogenous procaspase-3 (LNZ308, U87MG and 293T cells) (human, UniProt P42574 1-277).
T1 sequence (looked up): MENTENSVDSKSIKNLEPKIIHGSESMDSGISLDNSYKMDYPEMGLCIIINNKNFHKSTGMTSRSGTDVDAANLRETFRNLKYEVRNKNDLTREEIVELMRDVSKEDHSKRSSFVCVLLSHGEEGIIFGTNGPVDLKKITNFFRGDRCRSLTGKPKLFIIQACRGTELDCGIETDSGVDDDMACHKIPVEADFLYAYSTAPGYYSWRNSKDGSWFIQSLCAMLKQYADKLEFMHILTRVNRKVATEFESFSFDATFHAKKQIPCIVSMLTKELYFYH
The test can be described thus: anti-L12-2 immunoprecipitation from LNZ308, U87MG and 293T lysates, western blot. The protocol: (§1) To define further the molecular actions of Bcl2L12 polypeptides, the physical interactions with key post-mitochondrial apoptosis signaling molecules were assessed. Anti-L12-2 immunoprecipitates from lysates of LNZ308, U87MG, and 293T cells were subjected to western blot analysis for procaspases 7 and 3 and cytochrome c. Briefly, cells were lysed in IP buffer. Cleared supernatants were incubated with prebleed serum (8 μl) coupled to Protein A-sepharose 4B beads (Sigma) for 1 hour and subsequently with anti-L12-2 antiserum (8 μl) for 1 to 2 hours. […] The blots were washed with PBS/Tween and developed with goat anti-rabbit IgG (1:10,000) or with goat anti-mouse antibodies (1:10,000) (Pierce) in 5% milk PBS/Tween. After washing with PBS/Tween, the blots were developed with the Lumigen PS3 kit (Amersham) following the manufacturer's protocol. 1/40 of the lysate used for the immunoprecipitation was loaded to quantify the amount of co-immunoprecipitated caspase-7. […] Anti-L12-2 immunoprecipitates from control- and siRNA#5-treated U87MG cells were also subjected to western blot analysis for caspase-7.
Background: A western blot detects proteins with antibodies after separation by electrophoresis.

Test [3] concerns the target T2, cytochrome c (endogenous, LNZ308, U87MG and 293T cells) (human, UniProt P99999 2-105).
T2 construct: also called apoptosome component cytochrome c
Described as above. The procedure:
as §1

Data on two molecules can be found in patent US20060252053A1 (Dana-Farber, published 2006).

T2 sequence (P99999 2-105 limits assumed): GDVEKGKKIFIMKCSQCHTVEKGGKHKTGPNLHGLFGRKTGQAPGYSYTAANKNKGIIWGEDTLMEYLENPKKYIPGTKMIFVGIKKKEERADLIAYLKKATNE
Sequence of endogenous Apaf-1 polypeptide of 293T cells (human) (O14727 whole entry): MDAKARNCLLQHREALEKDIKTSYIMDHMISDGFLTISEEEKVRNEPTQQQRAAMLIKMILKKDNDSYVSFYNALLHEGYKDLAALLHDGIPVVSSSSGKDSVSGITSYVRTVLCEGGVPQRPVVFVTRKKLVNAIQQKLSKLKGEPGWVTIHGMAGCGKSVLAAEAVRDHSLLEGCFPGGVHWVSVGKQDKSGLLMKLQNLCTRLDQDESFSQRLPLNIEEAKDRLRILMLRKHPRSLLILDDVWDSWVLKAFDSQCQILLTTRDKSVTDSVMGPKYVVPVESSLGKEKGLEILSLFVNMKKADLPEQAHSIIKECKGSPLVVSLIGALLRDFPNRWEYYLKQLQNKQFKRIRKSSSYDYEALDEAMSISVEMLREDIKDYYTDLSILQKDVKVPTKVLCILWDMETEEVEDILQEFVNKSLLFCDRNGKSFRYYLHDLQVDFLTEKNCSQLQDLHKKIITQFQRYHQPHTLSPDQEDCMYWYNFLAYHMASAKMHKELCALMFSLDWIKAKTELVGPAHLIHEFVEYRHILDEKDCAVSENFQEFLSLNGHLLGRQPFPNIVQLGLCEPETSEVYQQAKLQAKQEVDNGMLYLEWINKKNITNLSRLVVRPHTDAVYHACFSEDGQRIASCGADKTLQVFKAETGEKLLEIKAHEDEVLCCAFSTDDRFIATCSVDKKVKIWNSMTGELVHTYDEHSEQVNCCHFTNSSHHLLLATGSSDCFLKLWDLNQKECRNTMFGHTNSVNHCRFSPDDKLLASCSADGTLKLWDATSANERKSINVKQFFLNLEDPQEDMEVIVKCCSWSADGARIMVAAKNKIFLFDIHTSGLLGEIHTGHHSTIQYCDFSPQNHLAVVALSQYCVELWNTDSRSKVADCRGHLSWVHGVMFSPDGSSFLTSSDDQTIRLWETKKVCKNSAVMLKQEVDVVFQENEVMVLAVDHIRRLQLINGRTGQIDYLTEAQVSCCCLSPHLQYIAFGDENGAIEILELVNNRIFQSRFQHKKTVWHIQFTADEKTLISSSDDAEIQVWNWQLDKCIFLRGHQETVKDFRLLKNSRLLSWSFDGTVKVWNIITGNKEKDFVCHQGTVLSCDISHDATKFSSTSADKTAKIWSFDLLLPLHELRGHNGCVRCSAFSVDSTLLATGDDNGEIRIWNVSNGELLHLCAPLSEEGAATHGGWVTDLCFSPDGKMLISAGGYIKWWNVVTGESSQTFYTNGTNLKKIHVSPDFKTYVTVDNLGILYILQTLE

“Bcl2L12-ΔBH2ΔP-rΔIHD polypeptide, V5 tagged (human amino acid sequence 1-167)” returned a caspase-9 activity in 293T cells (vector only: about 420 RFUs) in test [1] of 160 RFUs.

B1: endogenous Bcl2L12 polypeptide of human cell lines (LNZ308, LN443, LN382, U87MG, 293T) (other)
chain: MGRPAGLFPPLCPFLGFRPEACWERHMQIERAPSVPPFLRWAGYRPGPVRRRGKVELIKFVRVQWRRPQVEWRRRRWGPGPGASMAGSEELGLREDTLRVLAAFLRRGEAAGSPVPTPPRSPAQEEPTDFLSRLRRCLPCSLGRGAAPSESPRPCSLPIRPCYGLEPGPATPDFYALVAQRLEQLVQEQLKSPPSPELQGPPSTEKEAILRRLVALLEEEAEVINQKLASDPALRSKLVRLSSDSFARLVELFCSRDDSSRPSRACPGPPPPSPEPLARLALAMELSRRVAGLGGTLAGLSVEHVHSFTPWIQAHGGWEGILAVSPVDLNLPLD
notes: Endogenous protein in lysates or fixed cells of human cell lines
For B1, the binding result in test [2] and in test [3] was “no binding” each time.
